Series [1] concerns the target T1, Dye-LDH complex (recombinant dye-linked L-lactate dehydrogenase, STK16540 (α) / STK16550 (β), α3β3) (Sulfurisphaera tokodaii, UniProt Q970D7).
T1 construct: gene ST1655; gene cluster stk_16540-16570 expressed in Sulfolobus acidocaldarius SK1; N-terminal His-tag on STK16540 kept; purified α3β3 heterohexamer, about 253 kDa (subunits 30 and 40 kDa by SDS-PAGE; STK16550 43 kDa); stk_16560 and stk_16570 products not in the purified complex; with Dye-linked L-lactate dehydrogenase, alpha subunit (hypothetical protein with Fe-S cluster motif)
T1 sequence (Q970D7 1-383): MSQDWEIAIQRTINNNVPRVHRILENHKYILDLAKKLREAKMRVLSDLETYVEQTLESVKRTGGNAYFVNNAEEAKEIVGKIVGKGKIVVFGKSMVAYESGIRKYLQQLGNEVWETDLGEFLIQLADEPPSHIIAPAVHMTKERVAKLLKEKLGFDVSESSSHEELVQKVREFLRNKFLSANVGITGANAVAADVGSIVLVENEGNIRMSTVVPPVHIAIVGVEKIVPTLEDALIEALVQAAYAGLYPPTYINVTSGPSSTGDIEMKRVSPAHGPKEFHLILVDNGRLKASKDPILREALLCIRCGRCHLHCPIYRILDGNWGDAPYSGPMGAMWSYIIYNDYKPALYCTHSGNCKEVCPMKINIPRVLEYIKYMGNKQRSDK
T1 sequence (Q970D8 1-287 partner): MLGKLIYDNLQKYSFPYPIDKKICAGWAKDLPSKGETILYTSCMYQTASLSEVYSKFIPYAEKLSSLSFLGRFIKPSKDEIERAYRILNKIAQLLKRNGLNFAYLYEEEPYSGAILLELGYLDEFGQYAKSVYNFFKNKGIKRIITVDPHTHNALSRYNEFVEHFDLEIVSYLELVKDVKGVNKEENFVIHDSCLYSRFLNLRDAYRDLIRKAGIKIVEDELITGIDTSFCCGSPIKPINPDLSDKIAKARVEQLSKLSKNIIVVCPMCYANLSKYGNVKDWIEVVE
Kind of series: flavin extracted from purified enzyme, identified by HPLC. In kind it is binding. Conditions: prosthetic group co-purified with the complex.

Series [2] has as its target STK16540 protein (product of stk_16540), alpha subunit of the Dye-LDH complex (Sulfurisphaera tokodaii). As to the kind of experiment: native gel or EMSA; native gradient PAGE (Novex NativePAGE Bis-Tris gel system) of the purified enzyme; single protein of approximately 253 kDa; subunit masses from SDS-PAGE.
Substrate in series [3]: C[C@H](O)C(=O)O
Kind of series: purified protein. The note with it: electron donor, standard assay 0.2 mM DCIP, 200 mM PIPES-NaOH pH 6.5, 60 °C, free enzyme.

Substrate in series [4]: O=C1C(Cl)=CC(=Nc2ccc(O)cc2)C=C1Cl
As to the kind of experiment: purified protein. The class given is biochemical, Sulfurisphaera tokodaii. Conditions: electron acceptor, standard assay 40 mM L-lactate, 200 mM PIPES-NaOH pH 6.5, 60 °C, free enzyme.

As for `Cc1cc2nc3c(=O)[nH]c(=O)nc-3n(C[C@H](O)[C@H](O)[C@H](O)COP(=O)(O)O)c2cc1C` [FMN], the “flavin extracted from purified enzyme, identified by HPLC” value in series [1] is reported as “the flavin compound in the enzyme extract was identified as FMN”.
Molecule “Dye-LDH homolog (product of stk_16550), beta subunit of the Dye-LDH complex (enzyme)” had a stoichiometry N (β per α (3:3)) in series [2] of 1.

B1: Dye-LDH complex (recombinant dye-linked L-lactate dehydrogenase, STK16540 (α) / STK16550 (β), α3β3) (Sulfurisphaera tokodaii str. 7) (protein)
chain: MSQDWEIAIQRTINNNVPRVHRILENHKYILDLAKKLREAKMRVLSDLETYVEQTLESVKRTGGNAYFVNNAEEAKEIVGKIVGKGKIVVFGKSMVAYESGIRKYLQQLGNEVWETDLGEFLIQLADEPPSHIIAPAVHMTKERVAKLLKEKLGFDVSESSSHEELVQKVREFLRNKFLSANVGITGANAVAADVGSIVLVENEGNIRMSTVVPPVHIAIVGVEKIVPTLEDALIEALVQAAYAGLYPPTYINVTSGPSSTGDIEMKRVSPAHGPKEFHLILVDNGRLKASKDPILREALLCIRCGRCHLHCPIYRILDGNWGDAPYSGPMGAMWSYIIYNDYKPALYCTHSGNCKEVCPMKINIPRVLEYIKYMGNKQRSDK
notes: gene cluster stk_16540-16570 expressed in Sulfolobus acidocaldarius SK1; N-terminal His-tag on STK16540 kept; purified α3β3 heterohexamer, about 253 kDa (subunits 30 and 40 kDa by SDS-PAGE; STK16550 43 kDa); stk_16560 and stk_16570 products not in the purified complex; with Dye-linked L-lactate dehydrogenase, alpha subunit (hypothetical protein with Fe-S cluster motif)
As to B1, the Michaelis-Menten constant (Km) in “purified protein [3]” came to 199 µM; in the series “purified protein [4]”, 200 µM.

The values are drawn from publication PMC8704557 (International Journal of Molecular Sciences, 2021).
